Results: publication PMC4549621, “Molecular basis for mid-region amyloid-β capture by leading Alzheimer's disease immunotherapies” (Scientific Reports, 2015)

Biological target: T1, amyloid-β peptide residues 12–28 (Aβ12–28), wild type
T1 construct: cut product of the amyloid precursor protein; numbers count on: the Aβ peptide (Asp1 of Aβ); also called Aβ peptide; mid-region of the Aβ peptide; source: bought: Anaspec (95% purity)
T1 chain: VHHQKLVFFAEDVGSNK
Experiment: crystal structure; Fab:Aβ12–28 mixed at molar ratio 1:2, dialysed in 10 mM HEPES pH 7.5; crystals from 16% w/v PEG 3350, 50 mM sodium citrate pH 4, 295 K; 2.4 Å, two complexes in the asymmetric unit
Conditions: both partners purified

binding result: binds
B1: solanezumab Fab fragment (recombinant, Asn55(H2)Ser) (Fab, V domains shown)
VH: EVQLVESGGGLVQPGGSLRLSCAASGFTFSRYSMSWVRQAPGKGLELVAQINSVGSSTYYPDTVKGRFTISRDNAKNTLYLQMNSLRAEDTAVYYCASGDYWGQGTLVTVSS
VL: DVVMTQSPLSLPVTLGQPASISCRSSQSLIYSDGNAYLHWFLQKPGQSPRLLIYKVSNRFSGVPDRFSGSGSGTDFTLKISRVEAEDVGVYYCSQSTHVPWTFGQGTKVEIK
notes: Fab heavy chain of solanezumab; glycosylation site removed by Asn55(H2)Ser; Fab light chain of solanezumab; Parent antibody is IgG1; only the Fab portion was made; source: FreeStyle 293-F cells, co-transfected, purified from supernatant (Ni-NTA, SEC)
